According to US20170275666A1, “Methods for Preparing Rebaudioside I and Uses” (The Coca-Cola Company, priority 2014, published 2017):

Test: Directed evolution of UGT76G1, conversion of Rebaudioside D to Rebaudioside M (round 1)
Type: biochemical
Settings: 0.5 mM Rebaudioside D, 2.5 mM UDP-Glucose, 100 μL fresh lysate, 30° C., pH 7.2
Source text: Starting from the amino acid sequence of UGT76G1, as is described in Genbank (AAR06912.1), different mutations at various amino acid positions were identified that could alter the activity of the enzyme for the transformation of Rebaudioside D (Reb D) to Rebaudioside M (Reb M). This list of mutations, designed by DNA2.0 ProteinGPS™ strategy, was subsequently used to synthesize 96 variant genes that contained 3, 4 or 5 of these mutations that were codon-optimized for expression in E. coli. The genes were subcloned in the pET30a+ plasmid and used for transformation of E. coli BL21 (DE3) chemically competent cells. The obtained cells were grown in Petri-dishes on solid LB medium in the presence of Kanamycin. Suitable colonies were selected and allowed to grow in liquid LB medium in tubes. Glycerol was added to the suspension as cryoprotectant and 400 μL aliquots were stored at −20° C. and at −80° C.
These storage aliquots of E. coli BL21(DE3) containing the pET30a+_UGT76G1var plasmids were thawed and added to LBGKP medium (20 g/L Luria Broth Lennox; 50 mM PIPES buffer pH 7.00; 50 mM Phosphate buffer pH 7.00; 2.5 g/L glucose and 50 mg/L of Kanamycine). This culture was allowed to shake in a 96 microtiter plate at 135 rpm at 30° C. for 8 h.
3.95 mL of production medium containing 60 g/L of Overnight Express™ Instant TB medium (Novagen®), 10 g/L of glycerol and 50 mg/L of Kanamycin was inoculated with 50 μL of above described culture. In a 48 deepwell plate the resulting culture was allowed to stir at 20° C. The cultures gave significant growth and a good OD (600 nm; 1 cm) was obtained. After 44 h, the cells were harvested by centrifugation and frozen.
Lysis was performed by addition of Bugbuster® Master mix (Novagen®) to the thawed cells and the lysate was recovered by centrifugation. Activity tests were performed with 100 μL of fresh lysate that was added to a solution of Rebaudioside D (final concentration 0.5 mM), MgCl2 (final concentration 3 mM) and UDP-Glucose (final concentration 2.5 mM) in 50 mM phosphate buffer pH 7.2.
The reaction was allowed to run at 30° C. and samples were taken after 2, 4, 7 and 24 h. to determine conversion and initial rate by HPLC (CAD detection) using the analytical method that was described above for the transformation of Rebaudioside D to Rebaudioside M. The results are depicted in the following table.

Row | Molecule | Conversion Reb D to Reb M after 24 h (%) | initial rate (Reb M area/min)
1 | UGT76G1var8: UGT76G1 variant, mutations E224A_Q266S_Q342E (protein, UniProt Q6VAB4 1-458, looked up, variant E224A Q266S Q342E) UDP-glycosyltransferase 76G1: MENKTETTVRRRRRIILFPVPFQGHINPILQLANVLYSKGFSITIFHTNFNKPKTSNYPHFTFRFILDNDPQDERISNLPTHGPLAGMRIPIINEHGADELRRELELLMLASEEDEEVSCLITDALWYFAQSVADSLNLRRLVLMTSSLFNFHAHVSLPQFDELGYLDPDDKTRLEEQASGFPMLKVKDIKSAYSNWQILKEILGKMIKQTKASSGVIWNSFKALEESELETVIREIPAPSFLIPLPKHLTASSSSLLDHDRTVFSWLDQQPPSSVLYVSFGSTSEVDEKDFLEIARGLVDSKQSFLWVVRPGFVKGSTWVEPLPDGFLGERGRIVKWVPQEEVLAHGAIGAFWTHSGWNSTLESVCEGVPMIFSDFGLDQPLNARYMSDVLKVGVYLENGWERGEIANAIRRVMVDEEGEYIRQNARVLKQKADVSLMKGGSSYESLESLVSYISSL | 0.5 | 2.3E+04
2 | UGT76G1var13: UGT76G1 variant, mutations L243A_S357C_A385T (protein, UniProt Q6VAB4 1-458, looked up, variant L243A S357C A385T) UDP-glycosyltransferase 76G1: MENKTETTVRRRRRIILFPVPFQGHINPILQLANVLYSKGFSITIFHTNFNKPKTSNYPHFTFRFILDNDPQDERISNLPTHGPLAGMRIPIINEHGADELRRELELLMLASEEDEEVSCLITDALWYFAQSVADSLNLRRLVLMTSSLFNFHAHVSLPQFDELGYLDPDDKTRLEEQASGFPMLKVKDIKSAYSNWQILKEILGKMIKQTKASSGVIWNSFKELEESELETVIREIPAPSFAIPLPKHLTASSSSLLDHDRTVFQWLDQQPPSSVLYVSFGSTSEVDEKDFLEIARGLVDSKQSFLWVVRPGFVKGSTWVEPLPDGFLGERGRIVKWVPQQEVLAHGAIGAFWTHCGWNSTLESVCEGVPMIFSDFGLDQPLNTRYMSDVLKVGVYLENGWERGEIANAIRRVMVDEEGEYIRQNARVLKQKADVSLMKGGSSYESLESLVSYISSL | 0.2 | −3.3E+04
3 | UGT76G1var11: UGT76G1 variant, mutations F22L_A33G_V310I (protein, UniProt Q6VAB4 1-458, looked up, variant F22L A33G V310I) UDP-glycosyltransferase 76G1: MENKTETTVRRRRRIILFPVPLQGHINPILQLGNVLYSKGFSITIFHTNFNKPKTSNYPHFTFRFILDNDPQDERISNLPTHGPLAGMRIPIINEHGADELRRELELLMLASEEDEEVSCLITDALWYFAQSVADSLNLRRLVLMTSSLFNFHAHVSLPQFDELGYLDPDDKTRLEEQASGFPMLKVKDIKSAYSNWQILKEILGKMIKQTKASSGVIWNSFKELEESELETVIREIPAPSFLIPLPKHLTASSSSLLDHDRTVFQWLDQQPPSSVLYVSFGSTSEVDEKDFLEIARGLVDSKQSFLWVIRPGFVKGSTWVEPLPDGFLGERGRIVKWVPQQEVLAHGAIGAFWTHSGWNSTLESVCEGVPMIFSDFGLDQPLNARYMSDVLKVGVYLENGWERGEIANAIRRVMVDEEGEYIRQNARVLKQKADVSLMKGGSSYESLESLVSYISSL | 0.4 | 3.8E+04
4 | UGT76G1var12: UGT76G1 variant, mutations L243P_K303G_A352G (protein, UniProt Q6VAB4 1-458, looked up, variant L243P K303G A352G) UDP-glycosyltransferase 76G1: MENKTETTVRRRRRIILFPVPFQGHINPILQLANVLYSKGFSITIFHTNFNKPKTSNYPHFTFRFILDNDPQDERISNLPTHGPLAGMRIPIINEHGADELRRELELLMLASEEDEEVSCLITDALWYFAQSVADSLNLRRLVLMTSSLFNFHAHVSLPQFDELGYLDPDDKTRLEEQASGFPMLKVKDIKSAYSNWQILKEILGKMIKQTKASSGVIWNSFKELEESELETVIREIPAPSFPIPLPKHLTASSSSLLDHDRTVFQWLDQQPPSSVLYVSFGSTSEVDEKDFLEIARGLVDSGQSFLWVVRPGFVKGSTWVEPLPDGFLGERGRIVKWVPQQEVLAHGAIGGFWTHSGWNSTLESVCEGVPMIFSDFGLDQPLNARYMSDVLKVGVYLENGWERGEIANAIRRVMVDEEGEYIRQNARVLKQKADVSLMKGGSSYESLESLVSYISSL | 0.5 | 8.7E+04
5 | UGT76G1var10: UGT76G1 variant, mutations A33G_L246F_Q342E (protein, UniProt Q6VAB4 1-458, looked up, variant A33G L246F Q342E) UDP-glycosyltransferase 76G1: MENKTETTVRRRRRIILFPVPFQGHINPILQLGNVLYSKGFSITIFHTNFNKPKTSNYPHFTFRFILDNDPQDERISNLPTHGPLAGMRIPIINEHGADELRRELELLMLASEEDEEVSCLITDALWYFAQSVADSLNLRRLVLMTSSLFNFHAHVSLPQFDELGYLDPDDKTRLEEQASGFPMLKVKDIKSAYSNWQILKEILGKMIKQTKASSGVIWNSFKELEESELETVIREIPAPSFLIPFPKHLTASSSSLLDHDRTVFQWLDQQPPSSVLYVSFGSTSEVDEKDFLEIARGLVDSKQSFLWVVRPGFVKGSTWVEPLPDGFLGERGRIVKWVPQEEVLAHGAIGAFWTHSGWNSTLESVCEGVPMIFSDFGLDQPLNARYMSDVLKVGVYLENGWERGEIANAIRRVMVDEEGEYIRQNARVLKQKADVSLMKGGSSYESLESLVSYISSL | 0.3 | −7.7E+02
6 | UGT76G1var14: UGT76G1 variant, mutations A239I_F265I_V396F (protein, UniProt Q6VAB4 1-458, looked up, variant A239I F265I V396F) UDP-glycosyltransferase 76G1: MENKTETTVRRRRRIILFPVPFQGHINPILQLANVLYSKGFSITIFHTNFNKPKTSNYPHFTFRFILDNDPQDERISNLPTHGPLAGMRIPIINEHGADELRRELELLMLASEEDEEVSCLITDALWYFAQSVADSLNLRRLVLMTSSLFNFHAHVSLPQFDELGYLDPDDKTRLEEQASGFPMLKVKDIKSAYSNWQILKEILGKMIKQTKASSGVIWNSFKELEESELETVIREIPIPSFLIPLPKHLTASSSSLLDHDRTVIQWLDQQPPSSVLYVSFGSTSEVDEKDFLEIARGLVDSKQSFLWVVRPGFVKGSTWVEPLPDGFLGERGRIVKWVPQQEVLAHGAIGAFWTHSGWNSTLESVCEGVPMIFSDFGLDQPLNARYMSDVLKVGFYLENGWERGEIANAIRRVMVDEEGEYIRQNARVLKQKADVSLMKGGSSYESLESLVSYISSL | 5.3 | 1.5E+06
7 | UGT76G1var15: UGT76G1 variant, mutations F41L_L246F_Q425E (protein, UniProt Q6VAB4 1-458, looked up, variant F41L L246F Q425E) UDP-glycosyltransferase 76G1: MENKTETTVRRRRRIILFPVPFQGHINPILQLANVLYSKGLSITIFHTNFNKPKTSNYPHFTFRFILDNDPQDERISNLPTHGPLAGMRIPIINEHGADELRRELELLMLASEEDEEVSCLITDALWYFAQSVADSLNLRRLVLMTSSLFNFHAHVSLPQFDELGYLDPDDKTRLEEQASGFPMLKVKDIKSAYSNWQILKEILGKMIKQTKASSGVIWNSFKELEESELETVIREIPAPSFLIPFPKHLTASSSSLLDHDRTVFQWLDQQPPSSVLYVSFGSTSEVDEKDFLEIARGLVDSKQSFLWVVRPGFVKGSTWVEPLPDGFLGERGRIVKWVPQQEVLAHGAIGAFWTHSGWNSTLESVCEGVPMIFSDFGLDQPLNARYMSDVLKVGVYLENGWERGEIANAIRRVMVDEEGEYIRENARVLKQKADVSLMKGGSSYESLESLVSYISSL | 5.6 | 1.5E+06
8 | UGT76G1var9: UGT76G1 variant, mutations E231A_D301N_G348P (protein, UniProt Q6VAB4 1-458, looked up, variant E231A D301N G348P) UDP-glycosyltransferase 76G1: MENKTETTVRRRRRIILFPVPFQGHINPILQLANVLYSKGFSITIFHTNFNKPKTSNYPHFTFRFILDNDPQDERISNLPTHGPLAGMRIPIINEHGADELRRELELLMLASEEDEEVSCLITDALWYFAQSVADSLNLRRLVLMTSSLFNFHAHVSLPQFDELGYLDPDDKTRLEEQASGFPMLKVKDIKSAYSNWQILKEILGKMIKQTKASSGVIWNSFKELEESELATVIREIPAPSFLIPLPKHLTASSSSLLDHDRTVFQWLDQQPPSSVLYVSFGSTSEVDEKDFLEIARGLVNSKQSFLWVVRPGFVKGSTWVEPLPDGFLGERGRIVKWVPQQEVLAHPAIGAFWTHSGWNSTLESVCEGVPMIFSDFGLDQPLNARYMSDVLKVGVYLENGWERGEIANAIRRVMVDEEGEYIRQNARVLKQKADVSLMKGGSSYESLESLVSYISSL | 52.0 | 4.9E+07
